For assay [1], the target named is T1, recombinant protein containing hST2 extracellular domain with mouse antibody heavy chain Fc tag (hST2-ECD-mFc) (human).
T1 construct: Used for SPR and for ELISA of chimeric and humanized antibodies; also called human ST2 antigen
T1 chain: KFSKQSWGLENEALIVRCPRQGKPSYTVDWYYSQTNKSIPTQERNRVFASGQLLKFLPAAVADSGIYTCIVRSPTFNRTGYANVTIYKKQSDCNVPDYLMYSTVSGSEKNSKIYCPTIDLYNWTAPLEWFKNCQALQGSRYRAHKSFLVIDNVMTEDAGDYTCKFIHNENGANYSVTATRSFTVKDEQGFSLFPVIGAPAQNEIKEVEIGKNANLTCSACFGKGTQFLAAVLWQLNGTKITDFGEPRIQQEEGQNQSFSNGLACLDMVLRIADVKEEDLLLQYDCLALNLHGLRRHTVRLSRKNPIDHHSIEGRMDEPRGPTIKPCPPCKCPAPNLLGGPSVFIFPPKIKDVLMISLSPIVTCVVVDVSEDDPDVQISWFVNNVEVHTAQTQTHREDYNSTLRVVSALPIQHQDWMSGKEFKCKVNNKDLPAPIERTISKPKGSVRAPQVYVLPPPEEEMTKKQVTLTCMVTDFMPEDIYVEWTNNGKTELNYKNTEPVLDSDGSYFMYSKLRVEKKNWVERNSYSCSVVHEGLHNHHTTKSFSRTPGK
Put plainly: ELISA, plate coated with hST2-ECD-mFc. How it is done: ST2 binding screening and analysis of antibodies were performed by ELISA using hST2-ECD-mFc (for assays of chimeric and humanized antibodies), hST2-ECD-hFc protein (for assays of hybridoma antibodies) and Cyno-ST2-his (Sino biological, 90915-C08H) as antigens. A high-adsorption 96-well plate (Costar, 9018) was coated with 2 µg/mL hST2-ECD-mFc or Cyno-ST2-his antigen at 100 µL/well and incubated overnight at 4° C. After the antigen not adsorbed was well washed off, the non-specific binding sites were blocked with a blocking buffer (PBS containing 2% bovine serum albumin). After the plate was washed three times with a washing buffer (PBS containing 0.05% (v/v) Tween 20), the anti-ST2 antibodies (serially diluted 3-fold from an initial concentration of 10 nM to 8 concentrations: 3.333 nM, 1.111 nM, 0.370 nM, 0.123 nM, 0.041 nM, 0.014 nM, 0.005 nM, and 0.002 nM) were added at 100 µL/well, and the plate was incubated at room temperature for 1 h. After the plate was washed with the washing buffer, a horseradish peroxidase (HRP)-conjugated secondary antibody was added, and the plate was incubated for another 60 min. After the plate was washed with the washing buffer, the substrate TMB solution (Thermo, 00-4201-56) was added at 100 µL/well, and the plate was incubated at room temperature for 2 min. A stop solution (2 N H₂SO₄) was added at 100 µL/well to terminate the reactions. Colorimetric signals were generated and read at 450 nm using a microplate reader (PE, Envision). The data were analyzed using GraphPad Prism5, and the EC₅₀ values were calculated.
(In general: In an ELISA, binding on a coated surface is turned into a signal by an enzyme label.)

Assay [2] deals with T2, human ST2 (hST2, Interleukin-1 receptor-like 1 isoform A) on cells (human, UniProt Q01638 19-556).
T2 construct: the same id is used for hST2 naturally expressed on KU812 cells and on human CD4+ T cells; also called HEK293T-hST2-NFκB-Luciferase; KU812-NFκB-Luciferase
T2 sequence: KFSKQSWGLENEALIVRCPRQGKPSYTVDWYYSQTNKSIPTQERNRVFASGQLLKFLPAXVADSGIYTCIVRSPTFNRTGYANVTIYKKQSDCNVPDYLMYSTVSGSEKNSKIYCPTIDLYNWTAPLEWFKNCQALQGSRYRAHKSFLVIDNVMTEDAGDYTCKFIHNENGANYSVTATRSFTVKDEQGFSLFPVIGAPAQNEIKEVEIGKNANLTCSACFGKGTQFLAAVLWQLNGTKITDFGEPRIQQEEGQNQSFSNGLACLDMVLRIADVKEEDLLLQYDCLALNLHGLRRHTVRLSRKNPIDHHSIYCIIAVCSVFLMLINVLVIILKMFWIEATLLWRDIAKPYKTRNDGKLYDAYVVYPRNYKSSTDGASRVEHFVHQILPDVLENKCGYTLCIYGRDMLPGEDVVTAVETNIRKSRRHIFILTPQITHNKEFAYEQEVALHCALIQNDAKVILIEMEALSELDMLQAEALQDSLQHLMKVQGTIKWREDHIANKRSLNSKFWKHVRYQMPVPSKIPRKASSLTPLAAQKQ
The assay is described as follows: flow cytometry on HEK293T-hST2-NFκB-Luciferase cells. How it is done: The binding capacity of the anti-ST2 antibodies to hST2-overexpressing cell lines and cyno-ST2-overexpressing cell lines was analyzed using an FACS-based method through binding assays with the hST2 (SEQ ID NO:1)-overexpressing HEK293T cell line (HEK293T-hST2-NFκB-Luciferase) and the cynomolgus monkey ST2 (SEQ ID NO: 10)-overexpressing HEK293T cell line (HEK293T-Cyno-ST2-NFKB-Luciferase). HEK293 cells were transfected with the pLenti6.3- hST2 plasmid and the pLenti6.3-NFκB-luciferasae plasmid using a lentiviral transfection system to construct the cell line HEK293T-hST2-NFκB-Luciferase. HEK293T cells were transfected with the pLenti6.3-cynoST2 plasmid and the pLenti6.3-NFκB-luciferasae plasmid to construct the cell line HEK293T-Cyno-ST2-NFκB-Luciferase.
3 × 10⁵ HEK293T-hST2-NFκB-Luciferase or HEK293T-Cyno-ST2-NFκB-Luciferase cells were added to a 96-well culture plate. Serially diluted anti-ST2 antibodies (serially diluted 4-fold from an initial concentration of 667 nM to 8 concentrations in binding assays with the HEK293T-hST2-NFκB-Luciferase cells; serially diluted 4-fold from an initial concentration of 400 nM to 8 concentrations in binding assays with the HEK293T-Cyno-ST2-NFκB-Luciferase cells) were added to the cell suspensions. After the plate was incubated at room temperature for 60 min, the cells were washed 3 times with PBS. […] The cells were washed 3 times with PBS and resuspended in 100 µ1L of PBS, and then the fluorescence signals were analyzed and detected using a flow cytometer (BD, Accuri C6). The binding capacity of the anti-ST2 antibodies to hST2 and cyno-ST2 on the cell line surfaces was measured in terms of the mean fluorescence intensity (MFI) of staining. The data were analyzed using GraphPad Prism5, and the EC₅₀ values were calculated. The EC₅₀ values for the binding of the anti-ST2 chimeric antibodies to hST2 and Cyno-ST2 at the cellular level are shown in Table 8 and FIGS. 7-8.
(A flow cytometer gives signals particle by particle.)

B1: Chimeric 31C8 (antibody, human IgG2, kappa, V domains shown)
VH: QVQLQQSGPELVRPGASVTLSCKASGYIFIDSEMHWVKQTPVHGLEWIGAIDPETGDTVYNQKFKGKATLTADKSSSTASMELSSLTSEDSAVYYCTGSTTDYYFAYWGQGTTLTVSS
VL: DIVMTQAAFSNPVTLGTSASISCRSSKSLLHSNGIIYLYWYLQKPGQSPQLLIYQMSNLASGVPDRFSSSGSGTDFTLRISRVEAEDVGVYYCAQNLELPFTFGSGTKLEIKR
notes: also called xi31C8
Usually EC50 stands for the midpoint of the concentration-response curve. For B1, the EC50 in assay [1] stood at 0.184 nM; in assay [2], 0.298 nM.

B2: Chimeric 3C6 (antibody, human IgG2, kappa, V domains shown)
VH: QVQLQQSGAEVVRPGASVTLSCKASDYTITDYEMHWVKQTPVHGLEWIGAIDPETGDTAYSQNFKGKATLTADESSSTAYMELSSLTSEDSAVYYCSRSATDYYFASWGQGTTLTVSS
VL: DIVMTQAAISNPVTLGTSASMSCRSSKSLLHSNGITYLYWYLQKPGHSPQLLIYQMSNLASGVPDRFSSSGSGTDFTLKISRVEAEDVGVYYCAQNLELPFTFGSGTKLEIKR
notes: also called xi3C6
With B2, the EC50 was found to be 0.157 nM in assay [1] and 0.349 nM in assay [2].

B3: Chimeric 26A1 (antibody, human IgG2, kappa, V domains shown)
VH: QVQLQQSGAELVRPGASVTLSCKASDYIFTDSEIHWVKQTLVHGLEWIGAIDPETGDTAYNQKFKGKATLTADKSSSTAYMELSSLTSEGSAVYYCSGSTTDCYFAYWGQGTTLTVSS
VL: DIVMTQAAFSNPVTLGTSASISCRSSKSLLHSNGIIYLYWYLQKPGQSPQLLIYQMSNLASGVPDRFSSSGSGTDFTLRISRVEAEDVGVYYCAQNLELPFTFGSGTKLEIKR
notes: also called xi26A1
B3: the EC50 in assay [1] was 0.175 nM.

B4: Chimeric 8F4 (antibody, human IgG2, kappa, V domains shown)
VH: QVQLQQSGAELVRPGASVTLSCKASGHIFTDYEMQWVKQTPVHGLEWIGAFDPETGDTAYNQKFKGKATLTADKSSSTAYMELSSLTSEDSAVYYCSGSTTDYYFAYWGQGTSLTVSS
VL: DVVMTQTAFSNPVTLGTSASISCRSSKSLLHSNGIIYLYWYLQKPGQSPQLLIYQMSNLASGVPDRFSSSGSGTDFTLRISRVEAEDVGVYYCAQNLELPFTFGSGTKLEIKR
notes: also called xi8F4
Turning to B4, the EC50 worked out at 0.172 nM in assay [1] and 0.343 nM in assay [2].

B5: Chimeric 17E2 (antibody, human IgG2, kappa, V domains shown)
VH: QVQLQQSGAELVRPGASVTLSCKASGYTFTDYEMHWVKQTPVLGLEWIGAIDPETGDTAYNQKFKGKATLTADKSSSTAYMELSSLASEDSAVYYCIRVDSNYDYFDYWGQDTTLTVSS
VL: DIVLTQSPPILSASPGEKVTMTCRASSSVSYMHWYQQKPGSSPKPWIYDTSNLASGVPARFSGSGSGTSYSLTISRVEAEDAATYYCQQWSSNPLTFGAGTKLELKR
notes: also called xi17E2
Consider B5, for which the figures for the EC50 in assay [1] and in assay [2] were 0.235 nM and 0.224 nM, respectively.

B6: Chimeric 7D1 (antibody, human IgG2, kappa, V domains shown)
VH: QVQLQQSGAELVRPGASVTLSCKASGYTFTDYEMHWVKQTPVHGLDWIGTIDPETGDTAYNQKFKGRATLTADKSSSTAYMELSSLTSEDSAVYYCTRYSYTNSPYGMDYWGQGTSVTVSS
VL: DVVMTQTPKFLLVSAGDRVTITCKASQSVSNDVAWYQQKPGQSPKLLIYYASNRYTGVPDRFTGSGYGTDFTFTINTVQAEDLAVYFCQQDYSSPYTFGGGTKLEIKR
notes: also called xi7D1
On to B6, for which the values for the EC50 in assay [1] and in assay [2] were 0.191 nM and 0.265 nM, respectively.

B7: RG6149 (antibody Ab2 in CN104334582, prepared in-house) (antibody, human IgG2, kappa, V domains shown)
VH: EVQLVQSGAEVKKPGESLKISCKGSGYSFTNYWIGWVRQMPGKGLEWMGIIYPGNSDTRFSPSFQGQVTISADKSITTAYLQWSSLKASDTAMYYCARHGTSSDYYGLDVWGQGTTVTVSS
VL: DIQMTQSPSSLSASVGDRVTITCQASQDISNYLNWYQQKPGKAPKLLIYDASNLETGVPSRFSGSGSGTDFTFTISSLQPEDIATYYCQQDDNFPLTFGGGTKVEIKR
notes: Control anti-ST2 antibody
As to B7, the EC50 in assay [1] amounted to 0.113 nM; in assay [2] it was 0.589 nM.

The record behind these values is patent US20230272086A1 (CHIA TAI TIANQING PHARMACEUTICAL GROUP, published 2023).
